Laboratory results: patent US20240317882A1 (WUHAN BIO RAID BIOTECH, published 2024)
Numbering of substitutions follows the chain as printed.

T1: extracellular domain of CD99 (UniProt P14209 23-122, limits assumed)
T1 construct: extracellular domain; also called antigen CD99; purified recombinant extracellular domain of CD99
T1 sequence (looked up): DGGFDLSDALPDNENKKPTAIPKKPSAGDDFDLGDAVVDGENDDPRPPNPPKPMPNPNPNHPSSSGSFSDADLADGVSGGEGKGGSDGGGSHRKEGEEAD

B1: C4 anti-CD99 scFv (soluble) (scFv)
scFv: EVQLQQSGAELVKPGASVKLSCTASGFDIKDTYIHWVKQRPEQGLEWIGRIDPANGDTRYDPEFQGKASLTADTSSNTAYLQFSNLTSEDTAVYYCARRGGLSWGQGTTLTVSSGGGGSGGGGSGGGGSDIQMTQSPASLSASVGETVTITCRASGNIHNYLAWYQQKQGKSPQLLVYNAKTLADGVPSRFSGSGSGTQYSLKINSLQPEDFGSYYCQHFWSTPWTFGGGTKLEIK
notes: Prior-art scFv; Expressed as soluble scFv in E. coli BL21 (DE3) from PET-28b
B2: C3 anti-CD99 scFv (soluble) (scFv)
scFv: QVQLVQSGAEVKKPGASVKVSCKASGFNIKDTYIHWVRQAPGQGLEWMGRIDPANGNTKYDPKFQGRVTMTRDTSISTAYMELSRLRSDDTAVYYCARRGGVDWGQGTLVTVSSGGGGSGGGGSGGGGSDIVMTQTPLSLSVTPGQPASISCKSSQSLLDGDGKTYLNWLLQKPGQSPQRLIYLVSKLDSGVPDRFSGSGSGTDFTLKISRVEAEDVGVYYCWQGTHFPRTFGQGTKLEIK
notes: Prior-art scFv; Expressed as soluble scFv in E. coli BL21 (DE3) from PET-28b; also called C3 in CN 110590960 A
B3: C6 anti-CD99 scFv (soluble) (scFv)
scFv: EVQLQQSGAELVKPGASVKLSCTASGFNIKDTYIHWVKRRPEQGLEWIGRIDPANGNTKYDPKFQGKATITADTSSNTAYLQLSSLTSEDTAVYYCARRGLDYWGQGTLVTVSAGGGGSGGGGSGGGGSDVVMTQTPLTLSVTIGQPASISCKSSQSLLDGDGKTYLNWLLQRPGQSPKRLIYLVSKLDSGVPDRFTGSGSGTDFTLKISRVEAEDLGVYYCWQGTHFPRTFGGGTKLEIK
notes: Selected from a CD99 phage antibody library; Expressed as soluble scFv in E. coli BL21 (DE3) from PET-28b (Nde I / Xho I) and purified
B4: C2 anti-CD99 scFv (soluble) (scFv)
scFv: B3 scFv with L101G, D102V, Y103D
notes: Prior-art scFv; Expressed as soluble scFv in E. coli BL21 (DE3) from PET-28b; also called C2 in CN 110590960 A

target: T1, extracellular domain of CD99; experiment: surface plasmon resonance (BiacoreX), soluble scFv against extracellular domain of CD99
Source text: The nucleotide sequences shown in SEQ ID NO: 2, SEQ ID NO: 4, SEQ ID NO: 6, SEQ ID NO: 8 and SEQ ID NO: 10 were artificially synthesized with the cleavage site Nde I and Xho I each added to either terminal. The synthetic nucleotide sequences were subjected to dual-enzyme digestion, and then ligated to a cloning vector PMD-19T subjected to the same digestion process as above. The ligated product was transformed into the competent cells, and then the positive clones were screened and sequenced. The plasmid was extracted from the positive clone with a correct sequence, and then subjected to dual-enzyme digestion by using Nde I and Xho I. Meanwhile, an expression vector PET-28b was also subjected to the same dual-enzyme digestion as above. The nucleotide fragment was ligated with the vector fragment, with which E. coli was transformed. The positive clones were screened and sequenced. The positive clone with correct sequence was selected for extracting the plasmid.

Binder | Kd [nM]
B1 | 600
B2 | 510
B3 | 450
B4 | 480
